From patent publication US20090142377A1 come the findings set out here.

The experiment deals with dH5-II (cdH5-0 heat-cycled at pH 2, back to pH 7) (influenza A virus H5N1 strain A/Vietnam/1203/04), Q8QPL1. The experiment in a line: ELISA, coated H5 form, tPA series with excess e-amino caproic acid. The following applies: remark: other sources report otherwise. In general terms: An ELISA detects its analyte on a solid surface through an enzyme-linked reagent.

B1: tissue type plasminogen activator (tPA; Actilyse, Boehringer-Ingelheim), P00750 36-562 (enzyme)
chain: SYQVICRDEKTQMIYQQHQSWLRPVLRSNRVEYCWCNSGRAQCHSVPVKSCSEPRCFNGGTCQQALYFSDFVCQCPEGFAGKCCEIDTRATCYEDQGISYRGTWSTAESGAECTNWNSSALAQKPYSGRRPDAIRLGLGNHNYCRNPDRDSKPWCYVFKAGKYSSEFCSTPACSEGNSDCYFGNGSAYRGTHSLTESGASCLPWNSMILIGKVYTAQNPSAQALGLGKHNYCRNPDGDAKPWCHVLKNRRLTWEYCDVPSCSTCGLRQYSQPQFRIKGGLFADIASHPWQAAIFAKHRRSPGERFLCGGILISSCWILSAAHCFQERFPPHHLTVILGRTYRVVPGEEEQKFEVEKYIVHKEFDDDTYDNDIALLQLKSDSSRCAQESSVVRTVCLPPADLQLPDWTECELSGYGKHEALSPFYSERLKEAHVRLYPSSRCTSQHLLNRTVTDNMLCAGDTRSGGPQANLHDACQGDSGGPLVCLNDGRMTLVGIISWGLGCGQKDVPGVYTKVTNYLDWIRDNMRP
Usually Kd stands for a measure of binding affinity in units of concentration. High values mean weaker binding, low ones tighter binding. Take B1: the Bmax was found to be 0.07 and the Kd is 19 nM.
